# Assay results taken from US20160264649A1.
# B1: PGT-131 (antibody, V domains shown)
# VH: QVQLQESGPGLVKPSETLSLTCTVSGDSINTGHHYWGWVRQVPGKGPEWIAHIHYNTAVLHNPALKSRVTISIFTLKNLITLSLSNVTAADTAVYFCVRSGGDILYYIEWQKPHWFYPWGPGILVTVSS
# VL: QSALTQPPSASGSLGQSLTISCSGTGSDIGSWNFVSWYQQFPGRAPNLIIFEVNRRRSGVPDRFSGSKSGNTASLTVSGLRSEDEAEYFCSSLSGRWDIVFGGGTKVTVL
# Experiments:
# Test in all cases: cell-based or functional assay
# [1] = molecular target: HIV-1 Env of isolate MGRM-D-018 (subtype D) (HIV-1)
# [2] = molecular target: HIV-1 Env of isolate MGRM-F1-006 (subtype F) (HIV-1)
# [3] = molecular target: HIV-1 Env of isolate MGRM-D-011 (subtype D) (HIV-1)
# [4] = molecular target: HIV-1 Env of pseudovirus isolate MGRM-G-013 (subtype G) (HIV-1)
# [5] = molecular target: HIV-1 Env of isolate MGRM-D-014 (subtype D) (HIV-1)
# [6] = molecular target: HIV-1 Env of isolate MGRM-D-002 (subtype D) (HIV-1)
# [7] = molecular target: HIV-1 Env of pseudovirus isolate MGRM-G-025 (subtype G) (HIV-1)
# [8] = molecular target: HIV-1 Env of isolate MGRM-F1-013 (subtype F) (HIV-1)
# [9] = molecular target: HIV-1 Env of isolate MGRM-D-012 (subtype D) (HIV-1)
# [10] = molecular target: HIV-1 Env of pseudovirus isolate MGRM-G-019 (subtype G) (HIV-1)
# [11] = molecular target: HIV-1 Env of isolate MGRM-D-021 (subtype D) (HIV-1)
# [12] = molecular target: HIV-1 Env of pseudovirus isolate MGRM-G-009 (subtype G) (HIV-1)
# [13] = molecular target: HIV-1 Env of isolate MGRM-F1-015 (subtype F) (HIV-1)
# [14] = molecular target: HIV-1 Env of isolate MGRM-F1-020 (subtype F) (HIV-1)
# [15] = molecular target: HIV-1 Env of isolate MGRM-D-024 (subtype D) (HIV-1)
# [16] = molecular target: HIV-1 Env of isolate MGRM-D-008 (subtype D) (HIV-1)
# [17] = molecular target: HIV-1 Env of isolate MGRM-F1-004 (subtype F) (HIV-1)
# [18] = molecular target: HIV-1 Env of isolate MGRM-D-003 (subtype D) (HIV-1)
# [19] = molecular target: HIV-1 Env of isolate MGRM-F1-014 (subtype F) (HIV-1)
# [20] = molecular target: HIV-1 Env of isolate MGRM-F1-016 (subtype F) (HIV-1)
# [21] = molecular target: HIV-1 Env of pseudovirus isolate MGRM-G-006 (subtype G) (HIV-1)
# [22] = molecular target: HIV-1 Env of isolate MGRM-D-019 (subtype D) (HIV-1)
# [23] = molecular target: HIV-1 Env of isolate 92UG024 (subtype D) (HIV-1)
# [24] = molecular target: HIV-1 Env of isolate 92UG005 (subtype D) (HIV-1)
# [25] = molecular target: HIV-1 Env of isolate MGRM-F1-008 (subtype F) (HIV-1)
# [26] = molecular target: HIV-1 Env of pseudovirus isolate MGRM-G-004 (subtype G) (HIV-1)
# [27] = molecular target: HIV-1 Env of isolate 98CN006 (subtype CRF08_BC) (HIV-1)
# [28] = molecular target: HIV-1 Env of isolate MGRM-D-013 (subtype D) (HIV-1)
# [29] = molecular target: HIV-1 Env of pseudovirus isolate MGRM-G-015 (subtype G) (HIV-1)
# [30] = molecular target: HIV-1 Env of isolate MGRM-F1-010 (subtype F) (HIV-1)
# [31] = molecular target: HIV-1 Env of isolate MGRM-F1-022 (subtype F) (HIV-1)
# [32] = molecular target: HIV-1 Env of isolate MGRM-D-028 (subtype D) (HIV-1)
# [33] = molecular target: HIV-1 Env of isolate MGRM-D-004 (subtype D) (HIV-1)
# [34] = molecular target: HIV-1 Env of isolate MGRM-D-016 (subtype D) (HIV-1)
# [35] = molecular target: HIV-1 Env of pseudovirus isolate MGRM-G-028 (subtype G) (HIV-1)
# [36] = molecular target: HIV-1 Env of isolate MGRM-D-020 (subtype D) (HIV-1)
# [37] = molecular target: HIV-1 Env of isolate MGRM-F1-023 (subtype F) (HIV-1)
# [38] = molecular target: HIV-1 Env of pseudovirus isolate MGRM-G-017 (subtype G) (HIV-1)
# [39] = molecular target: HIV-1 Env of pseudovirus isolate MGRM-G-011 (subtype G) (HIV-1)
# [40] = molecular target: HIV-1 Env of isolate MGRM-D-005 (subtype D) (HIV-1)
# [41] = molecular target: HIV-1 Env of isolate MGRM-F1-012 (subtype F) (HIV-1)
# [42] = molecular target: HIV-1 Env of isolate MGRM-F1-021 (subtype F) (HIV-1)
# [43] = molecular target: HIV-1 Env of pseudovirus isolate MGRM-G-027 (subtype G) (HIV-1)
# [44] = molecular target: HIV-1 Env of isolate MGRM-D-026 (subtype D) (HIV-1)
# [45] = molecular target: HIV-1 Env of pseudovirus isolate MGRM-G-014 (subtype G) (HIV-1)
# [46] = molecular target: HIV-1 Env of pseudovirus isolate MGRM-G-001 (subtype G) (HIV-1)
# [47] = molecular target: HIV-1 Env of isolate 92UG001 (subtype D) (HIV-1)
# [48] = molecular target: HIV-1 Env of isolate MGRM-F1-018 (subtype F) (HIV-1)
# [49] = molecular target: HIV-1 Env of isolate 98CN009 (subtype CRF07_BC) (HIV-1)
# [50] = molecular target: HIV-1 Env of isolate 92UG114 (subtype D) (HIV-1)
# [51] = molecular target: HIV-1 Env of isolate MGRM-D-022 (subtype D) (HIV-1)
# [52] = molecular target: HIV-1 Env of pseudovirus isolate MGRM-G-016 (subtype G) (HIV-1)
# [53] = molecular target: HIV-1 Env of pseudovirus isolate MGRM-G-024 (subtype G) (HIV-1)
# [54] = molecular target: envelope of aMLV pseudovirus (negative control)
# [55] = molecular target: HIV-1 Env of isolate 92UG046 (subtype D) (HIV-1)
# [56] = molecular target: HIV-1 Env of isolate MGRM-D-029 (subtype D) (HIV-1)
# [57] = molecular target: HIV-1 Env of isolate MGRM-D-001 (subtype D) (HIV-1)
# [58] = molecular target: HIV-1 Env of isolate MGRM-F1-017 (subtype F) (HIV-1)
binder,measurement,setting,value
B1,IC50 (neutralization),[1],0.148 µg/mL
same,IC50 (neutralization),[2],> 50 µg/mL
same,IC50 (neutralization),[3],0.756 µg/mL
same,IC50,[4],> 50 µg/mL
same,IC50 (neutralization),[5],0.516 µg/mL
same,IC50 (neutralization),[6],11.2 µg/mL
same,IC50,[7],7.75 µg/mL
same,IC50 (neutralization),[8],> 50 µg/mL
same,IC50 (neutralization),[9],> 50 µg/mL
same,IC50,[10],> 50 µg/mL
same,IC50 (neutralization),[11],0.106 µg/mL
same,IC50,[12],> 50 µg/mL
same,IC50 (neutralization),[13],> 50 µg/mL
same,IC50 (neutralization),[14],> 50 µg/mL
same,IC50 (neutralization),[15],> 50 µg/mL
same,IC50 (neutralization),[16],> 50 µg/mL
same,IC50 (neutralization),[17],0.114 µg/mL
same,IC50 (neutralization),[18],19.6 µg/mL
same,IC50 (neutralization),[19],> 50 µg/mL
same,IC50 (neutralization),[20],> 50 µg/mL
same,IC50,[21],> 50 µg/mL
same,IC50 (neutralization),[22],> 50 µg/mL
same,IC50 (neutralization),[23],> 50 µg/mL
same,IC50 (neutralization),[24],0.854 µg/mL
same,IC50 (neutralization),[25],2.74 µg/mL
same,IC50,[26],> 50 µg/mL
same,IC50 (neutralization),[27],35.3 µg/mL
same,IC50 (neutralization),[28],4.14 µg/mL
same,IC50,[29],> 50 µg/mL
same,IC50 (neutralization),[30],> 50 µg/mL
same,IC50 (neutralization),[31],> 50 µg/mL
same,IC50 (neutralization),[32],> 50 µg/mL
same,IC50 (neutralization),[33],2.01 µg/mL
same,IC50 (neutralization),[34],> 50 µg/mL
same,IC50,[35],0.466 µg/mL
same,IC50 (neutralization),[36],> 50 µg/mL
same,IC50 (neutralization),[37],> 50 µg/mL
same,IC50,[38],> 50 µg/mL
same,IC50,[39],> 50 µg/mL
same,IC50 (neutralization),[40],> 50 µg/mL
same,IC50 (neutralization),[41],> 50 µg/mL
same,IC50 (neutralization),[42],> 50 µg/mL
same,IC50,[43],2.9 µg/mL
same,IC50 (neutralization),[44],> 50 µg/mL
same,IC50,[45],4.31 µg/mL
same,IC50,[46],0.404 µg/mL
same,IC50 (neutralization),[47],> 50 µg/mL
same,IC50 (neutralization),[48],> 50 µg/mL
same,IC50 (neutralization),[49],4.05 µg/mL
same,IC50 (neutralization),[50],> 50 µg/mL
same,IC50 (neutralization),[51],> 50 µg/mL
same,IC50,[52],> 50 µg/mL
same,IC50,[53],10.7 µg/mL
same,IC50,[54],> 50 µg/mL
same,IC50 (neutralization),[55],> 50 µg/mL
same,IC50 (neutralization),[56],> 50 µg/mL
same,IC50 (neutralization),[57],> 50 µg/mL
same,IC50 (neutralization),[58],> 50 µg/mL
